In US20060263802A1 (CRUCELL HOLLAND B V, published 2006):

Legend:
Test in all cases: PEPSCAN ELISA, looped peptide, 10 ug/ml
[1] = target: looped/cyclic peptide … (rabies virus strain ERA)
[2] = target: looped/cyclic peptide … (rabies virus strain ERA); remark: listed apart in the source
[3] = target: looped/cyclic peptide … (rabies virus strain ERA); remark: listed apart in the source
[4] = target: looped/cyclic peptide … (rabies virus strain ERA); remark: listed apart in the source
[5] = target: looped/cyclic peptide ADPSTVFKDGDEAED (rabies virus strain ERA)
[6] = target: looped/cyclic peptide … (rabies virus strain ERA); remark: listed apart in the source
[7] = target: looped/cyclic peptide … (rabies virus strain ERA); remark: listed apart in the source
[8] = target: looped/cyclic peptide … (rabies virus strain ERA); remark: listed apart in the source
[9] = target: looped/cyclic peptide … (rabies virus strain ERA); remark: listed apart in the source
[10] = target: looped/cyclic peptide … (rabies virus strain ERA); remark: listed apart in the source
[11] = target: looped/cyclic peptide … (rabies virus strain ERA); remark: listed apart in the source
[12] = target: looped/cyclic peptide … (rabies virus strain ERA); remark: listed apart in the source
[13] = target: looped/cyclic peptide … (rabies virus strain ERA); remark: listed apart in the source
[14] = target: looped/cyclic peptide … (rabies virus strain ERA); remark: listed apart in the source
[15] = target: looped/cyclic peptide … (rabies virus strain ERA); remark: listed apart in the source
[16] = target: looped/cyclic peptide … (rabies virus strain ERA); remark: listed apart in the source
[17] = target: looped/cyclic peptide … (rabies virus strain ERA); remark: listed apart in the source
[18] = target: looped/cyclic peptide … (rabies virus strain ERA); remark: listed apart in the source
[19] = target: looped/cyclic peptide … (rabies virus strain ERA); remark: listed apart in the source
[20] = target: looped/cyclic peptide … (rabies virus strain ERA); remark: listed apart in the source
[21] = target: looped/cyclic peptide … (rabies virus strain ERA); remark: listed apart in the source
[22] = target: looped/cyclic peptide … (rabies virus strain ERA); remark: listed apart in the source
[23] = target: looped/cyclic peptide … (rabies virus strain ERA); remark: listed apart in the source
[24] = target: looped/cyclic peptide … (rabies virus strain ERA); remark: listed apart in the source
[25] = target: looped/cyclic peptide … (rabies virus strain ERA); remark: listed apart in the source
[26] = target: looped/cyclic peptide … (rabies virus strain ERA); remark: listed apart in the source
[27] = target: looped/cyclic peptide … (rabies virus strain ERA); remark: listed apart in the source
[28] = target: looped/cyclic peptide … (rabies virus strain ERA); remark: listed apart in the source
[29] = target: looped/cyclic peptide … (rabies virus strain ERA); remark: listed apart in the source
[30] = target: looped/cyclic peptide … (rabies virus strain ERA); remark: listed apart in the source
[31] = target: looped/cyclic peptide … (rabies virus strain ERA); remark: listed apart in the source
[32] = target: looped/cyclic peptide … (rabies virus strain ERA); remark: listed apart in the source
[33] = target: looped/cyclic peptide … (rabies virus strain ERA); remark: listed apart in the source
[34] = target: looped/cyclic peptide … (rabies virus strain ERA); remark: listed apart in the source
[35] = target: looped/cyclic peptide … (rabies virus strain ERA); remark: listed apart in the source
[36] = target: looped/cyclic peptide … (rabies virus strain ERA); remark: listed apart in the source
[37] = target: looped/cyclic peptide … (rabies virus strain ERA); remark: listed apart in the source
[38] = target: looped/cyclic peptide … (rabies virus strain ERA); remark: listed apart in the source
[39] = target: looped/cyclic peptide … (rabies virus strain ERA); remark: listed apart in the source
[40] = target: looped/cyclic peptide … (rabies virus strain ERA); remark: listed apart in the source
[41] = target: looped/cyclic peptide … (rabies virus strain ERA); remark: listed apart in the source
[42] = target: looped/cyclic peptide … (rabies virus strain ERA); remark: listed apart in the source
[43] = target: looped/cyclic peptide … (rabies virus strain ERA); remark: listed apart in the source
[44] = target: looped/cyclic peptide … (rabies virus strain ERA); remark: listed apart in the source
[45] = target: looped/cyclic peptide … (rabies virus strain ERA); remark: listed apart in the source
[46] = target: looped/cyclic peptide … (rabies virus strain ERA); remark: listed apart in the source
[47] = target: looped/cyclic peptide … (rabies virus strain ERA); remark: listed apart in the source
[48] = target: looped/cyclic peptide … (rabies virus strain ERA); remark: listed apart in the source
[49] = target: looped/cyclic peptide … (rabies virus strain ERA); remark: listed apart in the source
[50] = target: looped/cyclic peptide … (rabies virus strain ERA); remark: listed apart in the source
[51] = target: looped/cyclic peptide … (rabies virus strain ERA); remark: listed apart in the source
[52] = target: looped/cyclic peptide … (rabies virus strain ERA); remark: listed apart in the source
[53] = target: looped/cyclic peptide … (rabies virus strain ERA); remark: listed apart in the source
[54] = target: looped/cyclic peptide … (rabies virus strain ERA); remark: listed apart in the source
[55] = target: looped/cyclic peptide … (rabies virus strain ERA); remark: listed apart in the source
[56] = target: looped/cyclic peptide … (rabies virus strain ERA); remark: listed apart in the source
[57] = target: looped/cyclic peptide … (rabies virus strain ERA); remark: listed apart in the source
[58] = target: looped/cyclic peptide … (rabies virus strain ERA); remark: listed apart in the source
[59] = target: looped/cyclic peptide … (rabies virus strain ERA); remark: listed apart in the source
[60] = target: looped/cyclic peptide … (rabies virus strain ERA); remark: listed apart in the source
[61] = target: looped/cyclic peptide … (rabies virus strain ERA); remark: listed apart in the source

B1: human monoclonal antibody CRJB (antibody, V domains shown)
VH: QITLKETGPTLVKPTQTLTLTCTFSGFSLSTSGVGVGWIRQPPGKALEWVTLIYWDDDKRYSPSLENRVTIRKDTSKNQVALTMTNMDPLDTGTYYCAHRQHISSFPWFDSWGQGTLVTVSS
VL: SYVLTQPPSVSVAPGKTARINCGGNNIEYRSVHWYQQKSGQAPVAVIYDNSDRPSGIPERFSGSKSGNTATLTISRVEAGDEADYYCQVWDISSDVVFGGGTKLTVLG
- OD [1]: 58 OD
- OD [2]: 93 OD
- OD [3]: 97 OD
- OD [4]: 90 OD
- OD [5]: 72 OD
- OD [6]: 110 OD
- OD [7]: 101 OD
- OD [8]: 93 OD
- OD [9]: 90 OD
- OD [10]: 80 OD
- OD [11]: 42 OD
- OD [12]: 71 OD
- OD [13]: 102 OD
- OD [14]: 87 OD
- OD [15]: 104 OD
- OD [16]: 93 OD
- OD [17]: 90 OD
- OD [18]: 89 OD
- OD [19]: 92 OD
- OD [20]: 101 OD
- OD [21]: 104 OD
- OD [22]: 79 OD
- OD [23]: 107 OD
- OD [24]: 94 OD
- OD [25]: 93 OD
- OD [26]: 118 OD
- OD [27]: 104 OD
- OD [28]: 113 OD
- OD [29]: 106 OD
- OD [30]: 100 OD
- OD [31]: 83 OD
- OD [32]: 78 OD
- OD [33]: 100 OD
- OD [34]: 92 OD
- OD [35]: 78 OD
- OD [36]: 79 OD
- OD [37]: 91 OD
- OD [38]: 86 OD
- OD [39]: 129 OD
- OD [40]: 97 OD
- OD [41]: 97 OD
- OD [42]: 87 OD
- OD [43]: 72 OD
- OD [44]: 86 OD
- OD [45]: 76 OD
- OD [46]: 82 OD
- OD [47]: 100 OD
- OD [48]: 106 OD
- OD [49]: 101 OD
- OD [50]: 94 OD
- OD [51]: 104 OD
- OD [52]: 147 OD
- OD [53]: 98 OD
- OD [54]: 93 OD
- OD [55]: 113 OD
- OD [56]: 98 OD
- OD [57]: 111 OD
- OD [58]: 123 OD
- OD [59]: 97 OD
- OD [60]: 91 OD
- OD [61]: 85 OD
